These results are taken from the supplement of paper PMC9942255.

The test system of this series is Bacillus subtilis DB104 (SP-AmyQ fusion secretion). The series can be described thus: AmyQ secretion efficiency, weighted average sort bin (1 = best secretion, 10 = worst) (bin number (weighted average, 1-10)); higher = lower secretion efficiency. Put shortly: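 With fluorescein-starch as substrate, a B. subtilis DB104 library expressing mature AmyQ fused to designed signal peptides (integrated at amyE) was encapsulated at about 0.3 cells per ~65 nL alginate bead. After about 13 h at room temperature, beads were nile red stained, and occupied beads were sorted by large-particle flow cytometry into 10 equally populated bins by green/red fluorescence ratio. Illumina sequencing of the amplicons in each bin was used to calculate the secretion score, which is the read-frequency-weighted average bin number, normalised to beads per bin, with low-abundance sequences left out.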

In turn, MKKRKRRNFKRFIAAFLVLALMISLVPDVLAKST yielded an AmyQ secretion efficiency of 3.69.

Consider MFNRLFRVCFLAALIMAFRKKNSVYAQKP, for which the AmyQ secretion efficiency is 7.12.

Sequence MRKRLFRVCFLAALIMAFTLPNSVYAQKP yielded an AmyQ secretion efficiency of 2.73.

The sequence MLKKIALTLCPAIVGSLLFFTAPSSAHVS had an AmyQ secretion efficiency of 3.86.

The sequence MTMLRKIIGWILLLCIIPEFAFTVIASGKEV registered an AmyQ secretion efficiency of 5.32.

In turn, MKKLLAAGIIGLLTVSIASPGFAAEK displayed an AmyQ secretion efficiency of 2.84.

MRMLWRSRRKCKRRLTLAPCAQAAEP displayed an AmyQ secretion efficiency of 5.33.

For MKLWMRKTLVVLFTIVTFGLVSPPAATMADKP, the AmyQ secretion efficiency worked out at 2.68.

Sequence MSSSVKIAGVLTVAAAAMTAKMYATAKGN showed an AmyQ secretion efficiency of 4.6.

In turn, MRSYIKVLTMCFLGLILFVPTALQDNS came in with an AmyQ secretion efficiency of 6.11.

For MKKQIITATTAVVLGSTLFAGAASYQSI, the AmyQ secretion efficiency turned out to be 6.33.

For the sequence MKKRFFGPIILAFILFAGLIAIPS, the AmyQ secretion efficiency amounted to 5.16.

MRIFKKAVFVIMISFLIATVNVNTAHAEDD registered an AmyQ secretion efficiency of 3.86.

MLTKRLLTIYIMLLGLIKKKRKKAQAEEK displayed an AmyQ secretion efficiency of 7.57.

Regarding MIVIMSFNLIILLFISIIVFLSVIQPQPS, the AmyQ secretion efficiency was 6.9.

In turn, MKKWMITIAMLILAGIALFVFISPFKSHKT had an AmyQ secretion efficiency of 6.23.

With MLCVMMLLFSAIASFPVSEQAKDQ, the AmyQ secretion efficiency is 4.62.

For the sequence MKLKKRVSMFKRRRTMCGGLFVTPAKAVKT, the AmyQ secretion efficiency amounted to 6.84.

MKLKSKLLLSCLALSTVFVATTILNAPTH: the AmyQ secretion efficiency is 6.08.

Sequence MLSIWIGMLAAAVLLLMVPKVSLADAA gave an AmyQ secretion efficiency of 6.86.

In the case of MKLKSKLLLSCLALSTVFVATTIANAPRR, the AmyQ secretion efficiency stood at 6.72.

On to MGLGKKLSVAVAASFMSLSISLPGQQAAEG, for which the AmyQ secretion efficiency is 3.99.

On to MPYLKRVLLLLVTGLFMSLFAVTATASVQTG, for which the AmyQ secretion efficiency worked out at 1.13.

The sequence MMFMFLLCVMMLLFSAIASFPVSAQAKDQ showed an AmyQ secretion efficiency of 6.02.

Regarding MKKRFFGPIILAFILFAGAIEIPS, the AmyQ secretion efficiency was found to be 5.48.

In the case of MLKKIALTLCPAIVGSLLFFTAPNSAHVS, the AmyQ secretion efficiency amounted to 6.42.

Turning to MRMLWRSLALCGLALTLAPCAQAAPK, the AmyQ secretion efficiency was determined as 2.07.

In turn, MLKKKWMVGLLAGCLAAGGAFATEN yielded an AmyQ secretion efficiency of 6.32.

MKWMCSICCAAVLLAGRRRRRKAQAEAV registered an AmyQ secretion efficiency of 6.72.

MAIIIAIIAAVIVIAALITFNVMNASPG showed an AmyQ secretion efficiency of 6.23.

The sequence MRPVFPLILSAVLFLSCFFGARQTEMSASKR registered an AmyQ secretion efficiency of 3.55.

Regarding MLKKIALTLCPAIVGSLLFFTAPASAHVE, the AmyQ secretion efficiency came to 2.48.

The sequence MKRIRIPMTLALGAALTIAPLKRKASAEEN came in with an AmyQ secretion efficiency of 7.5.

As to MRYFSKAVFVIMISFLIATVNVNTAHAAID, the AmyQ secretion efficiency came to 5.65.

Regarding MSLYTVIASILLSFLSVLSGGHHESKAFPV, the AmyQ secretion efficiency came to 5.37.

As to MKKIWIGMLAAAMVPKVSLADAA, the AmyQ secretion efficiency came out at 5.25.

Sequence MKLSVKIAGVLTVAAAAMRKRKKRATAKGN returned an AmyQ secretion efficiency of 7.22.

Turning to MRSYIKVLTMCFLGLILFVPTFLADNS, the AmyQ secretion efficiency is 5.95.

In turn, MKRLCLWFTVFSLFLVLLPGKALGARR returned an AmyQ secretion efficiency of 2.37.

As to MGRIKTKITILLVLLLLLAGTYMYIN, the AmyQ secretion efficiency is 6.42.

As to MLKKIALTLCPAIVGSLLFFTAPKSAHVS, the AmyQ secretion efficiency was found to be 5.03.

In turn, MKKIMSGKKGMVLLTIFCFSPQASAAYD showed an AmyQ secretion efficiency of 5.2.

MKKFVAVAALSTTAFGAHASAKEI returned an AmyQ secretion efficiency of 6.74.

As to MKKQIITATTAVVLGSTLFAGAQSAQSI, the AmyQ secretion efficiency was 4.07.

MKVCQKSIVRFLVSLIIGTFVISVPFMANFQSD displayed an AmyQ secretion efficiency of 5.64.

Take MNLRKILLSSALSLGMLVSAAPVLETSS: the AmyQ secretion efficiency came out at 7.05.

MKLKSKLLLSCLALSTVFVATTIANCPTH: the AmyQ secretion efficiency turned out to be 7.55.

In turn, MKSKGSIMACKKKKSFTITTFINTETISAFSN displayed an AmyQ secretion efficiency of 7.29.

MGLGKKLSVAVAASFMSLSISLPGVQAEDD came in with an AmyQ secretion efficiency of 4.28.

Sequence MLCVMMLLFSAIASFPVSTQAKDQ gave an AmyQ secretion efficiency of 5.3.

In turn, MKLAKRVSALTPSTTLAITWKAKEL had an AmyQ secretion efficiency of 5.85.

MLKRTSFVSSLFISSAVLLSILLPSGQAHAQKR yielded an AmyQ secretion efficiency of 2.41.

For the sequence MKKCKRKKKKIALILSLSTNAFAKNT, the AmyQ secretion efficiency came to 6.9.

The sequence MYKKFVPTYTKYFLFFVSFEMMENPHALDY yielded an AmyQ secretion efficiency of 6.52.

On to MSSGIIVAGLAVSAVVGSSMAAAPAEAKTI, for which the AmyQ secretion efficiency is 6.57.

In the case of MKKLLAAGIIGLLTVSIASPLFAAEK, the AmyQ secretion efficiency was 3.02.

Turning to MLNGIISFLLVSFVLFFALSTGITGVQAAPA, the AmyQ secretion efficiency is 3.09.

Sequence MKKRRGRGSVLVPALIMSGITLIEANKK came in with an AmyQ secretion efficiency of 7.89.

Turning to MRIFKKARKKRRKSFLIATVNVNTAHAAID, the AmyQ secretion efficiency stood at 6.58.

The sequence MPIKKKVMMCLAVTLVFGSMIFITLTNSGGFKE gave an AmyQ secretion efficiency of 6.04.

For the sequence MTKKARKLPLVCVLLISGWLAPAASASAQTT, the AmyQ secretion efficiency is 1.96.

As for MKKTIMSFVAVAALSTTAFGAHVSAKEI, the AmyQ secretion efficiency was 2.83.

As to MKSKWMSGLLLVAVGFSFTQVMHHAGET, the AmyQ secretion efficiency worked out at 6.66.

Turning to MKWMCKRCCRRKRLAGGAAQAEAV, the AmyQ secretion efficiency turned out to be 7.06.

In turn, MRSYIKSKKRCKQQLILFVPTALADNS had an AmyQ secretion efficiency of 7.44.

MTGLKMLSMLTVMIASLFIFSSQALAVQY came in with an AmyQ secretion efficiency of 1.83.

For the sequence MKRMIVRMTLPLLIVCLAFSSFSASAPVGARAASE, the AmyQ secretion efficiency was found to be 2.02.

MKRQSQTLSFLSIIVAYPIQTNASPM gave an AmyQ secretion efficiency of 8.43.

MKSKGSIMACLILFSFTITTFIAFITISAFSN showed an AmyQ secretion efficiency of 5.09.

Turning to MKRLCLWFTVFSPGKALGAVD, the AmyQ secretion efficiency came to 7.52.

In turn, MKKLLAAGIIGLLTVSSFAAEK returned an AmyQ secretion efficiency of 6.74.

In turn, MKRFSTAYLLLGILCSAAVFLIGAPSRALGAPD showed an AmyQ secretion efficiency of 2.52.

Regarding MRRGKKLSVAVAASFMSLSISLPGVQAAEG, the AmyQ secretion efficiency amounted to 1.3.

MKKGIIRFLLVSFVLFFALSTGITGVQDAPA registered an AmyQ secretion efficiency of 6.75.

Take MRNLTKTSLLLAGLCTAAQMVFVTHSSAEES: the AmyQ secretion efficiency came to 4.02.

On to MKKWIYVVLVLSIAGIGGISVSAFSVHAASS, for which the AmyQ secretion efficiency stood at 5.09.

For the sequence MKVCQKSIVRFKRRKRRGTFVISVPFMANAQSD, the AmyQ secretion efficiency was found to be 7.96.

MRGKSAVLLSLIMLIAGFLISFPFQM: the AmyQ secretion efficiency amounted to 5.95.

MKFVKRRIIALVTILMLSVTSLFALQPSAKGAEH registered an AmyQ secretion efficiency of 3.59.

MPYLKRVLLLLVTGLFMSLFAVTATASQQTG yielded an AmyQ secretion efficiency of 1.51.

MTTKFTALAVFLLCFMPAAKIKRKHTQASLL came in with an AmyQ secretion efficiency of 7.32.

Regarding MLKKKWMLMVGLLAGCLAAGGFSYNAFATEN, the AmyQ secretion efficiency stood at 4.46.

MKRLFMKASLVLFAVVFVFAVKGAPLKAETH displayed an AmyQ secretion efficiency of 2.67.

The sequence MKLAKRVSALTPSTTLAITQKAKEL showed an AmyQ secretion efficiency of 5.63.

Consider MFLRKILLSSALSLGMLVSAAPVLATSS, for which the AmyQ secretion efficiency is 2.2.

As for MKRRRRRFILVLSFLSIIVAYPIQTNASPM, the AmyQ secretion efficiency turned out to be 2.07.

MTKYTVIASILLSFLSVLSGGHHESKAFPV registered an AmyQ secretion efficiency of 6.55.

With MKLKKRVSMFLVALTMCGGLFVRRAKAVKT, the AmyQ secretion efficiency worked out at 7.34.

For MTMLRKIIGWILLLCIIPSKQQSSIASGKEV, the AmyQ secretion efficiency came to 6.84.

Sequence MKKRFSLIMMTGLLFGLTSPAFAAPK showed an AmyQ secretion efficiency of 1.77.

Turning to MHLIRAKKRKCRAVVLIAGCRFNEDQHQAEGENT, the AmyQ secretion efficiency was 5.77.

In turn, MKKLAAGLTASAIVGTTLVVTPAEAATI registered an AmyQ secretion efficiency of 2.27.

In turn, MKKRLIAPMLLSAASLAFFAMSGSVQAAAY came in with an AmyQ secretion efficiency of 4.49.

MKKTIMSFVAVAALSTTAFGAHASSKEI registered an AmyQ secretion efficiency of 3.17.

Sequence MKLKKRVSMFLVALTMCGGLFVTPVKAVKT gave an AmyQ secretion efficiency of 2.64.

As to MRKKRVRKCKKAASLTLGSLLPAGYASAKED, the AmyQ secretion efficiency was 7.62.

The sequence MPYLKRVLLLLVTGLFMSLFRKRRKRASAQTG gave an AmyQ secretion efficiency of 6.94.

MKKKQQHSTRRKLIVLLFFSFFGVQPIHAKKQ yielded an AmyQ secretion efficiency of 5.23.

MRSKKLWISLLFALTLIFTMAFSNMSPQAAGK: the AmyQ secretion efficiency was determined as 4.28.

The sequence MLTKRLLTIYIMLLGLIAWFPGATVPAQAEEK registered an AmyQ secretion efficiency of 2.86.

As to MKKVLMAFIICLSLILSVLAAPPSGPKAESV, the AmyQ secretion efficiency was determined as 3.78.

Turning to MNKPTKLFSTLALAAGMTKRRAGGAGTIHAQQP, the AmyQ secretion efficiency came to 5.85.

As to MKKAFLVFLMVVLVLMVFLTVKQQESVAQAKQL, the AmyQ secretion efficiency is 3.05.

For MKRLLSTLLIGIMLLTFAPSAFWKQD, the AmyQ secretion efficiency amounted to 6.93.

As to MKKLLAAGIIGLLTVSIASPVFAAEK, the AmyQ secretion efficiency came to 2.43.

MKSKGSIMSACLILFSFTITTFINTETISAFSN displayed an AmyQ secretion efficiency of 3.07.

Sequence MTKKAWFLPLVCVLLISGWLAPAASASQQTT had an AmyQ secretion efficiency of 2.02.

Sequence MPYLKRVLLLLVTGLFMSLFAVTATASEQTG displayed an AmyQ secretion efficiency of 1.36.

As to MFNRLFRVCFLAALIMAFEEEDDEVYAQKP, the AmyQ secretion efficiency turned out to be 4.05.

As for MRKKRVITCVMAASLTLGSLLPAGYLSAKED, the AmyQ secretion efficiency was determined as 4.34.
